Laboratory results: paper doi:10.1101/2024.10.02.616340 (bioRxiv, 2024)

How the values were obtained:
[1] = biological target: yeast Mcm3 (subunit of CMG) (budding yeast, UniProt P24279 1-971); test: cryo-EM structure
[2] = biological target: T1, yeast Mcm4 (subunit of CMG) (budding yeast, UniProt P30665 1-933); test: cryo-EM structure
T1 sequence: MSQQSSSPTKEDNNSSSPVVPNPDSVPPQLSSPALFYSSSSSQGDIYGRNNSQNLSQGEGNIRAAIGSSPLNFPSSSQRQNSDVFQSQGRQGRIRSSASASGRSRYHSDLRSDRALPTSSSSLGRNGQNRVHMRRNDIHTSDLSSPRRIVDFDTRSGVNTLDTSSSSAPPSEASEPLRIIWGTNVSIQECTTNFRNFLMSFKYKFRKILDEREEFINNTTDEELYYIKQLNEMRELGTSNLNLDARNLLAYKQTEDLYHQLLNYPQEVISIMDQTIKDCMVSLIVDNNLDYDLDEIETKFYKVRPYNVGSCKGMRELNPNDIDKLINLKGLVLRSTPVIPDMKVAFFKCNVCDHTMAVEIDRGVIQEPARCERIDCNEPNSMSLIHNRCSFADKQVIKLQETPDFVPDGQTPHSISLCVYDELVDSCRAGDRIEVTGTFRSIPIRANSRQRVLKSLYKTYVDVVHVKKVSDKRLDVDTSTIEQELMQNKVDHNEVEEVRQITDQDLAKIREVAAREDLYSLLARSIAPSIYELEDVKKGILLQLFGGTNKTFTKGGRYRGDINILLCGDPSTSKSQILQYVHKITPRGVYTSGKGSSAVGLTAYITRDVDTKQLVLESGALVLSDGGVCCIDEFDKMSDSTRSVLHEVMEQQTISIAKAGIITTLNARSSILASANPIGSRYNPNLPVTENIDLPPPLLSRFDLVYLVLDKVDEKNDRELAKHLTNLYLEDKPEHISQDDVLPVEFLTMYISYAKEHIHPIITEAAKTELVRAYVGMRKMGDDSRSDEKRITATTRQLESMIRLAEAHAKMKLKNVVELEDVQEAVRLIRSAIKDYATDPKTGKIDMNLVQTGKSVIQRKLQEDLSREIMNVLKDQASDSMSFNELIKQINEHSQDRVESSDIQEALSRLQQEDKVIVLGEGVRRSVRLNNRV

Chain of yeast Mcm3 (subunit of CMG) (P24279 whole entry): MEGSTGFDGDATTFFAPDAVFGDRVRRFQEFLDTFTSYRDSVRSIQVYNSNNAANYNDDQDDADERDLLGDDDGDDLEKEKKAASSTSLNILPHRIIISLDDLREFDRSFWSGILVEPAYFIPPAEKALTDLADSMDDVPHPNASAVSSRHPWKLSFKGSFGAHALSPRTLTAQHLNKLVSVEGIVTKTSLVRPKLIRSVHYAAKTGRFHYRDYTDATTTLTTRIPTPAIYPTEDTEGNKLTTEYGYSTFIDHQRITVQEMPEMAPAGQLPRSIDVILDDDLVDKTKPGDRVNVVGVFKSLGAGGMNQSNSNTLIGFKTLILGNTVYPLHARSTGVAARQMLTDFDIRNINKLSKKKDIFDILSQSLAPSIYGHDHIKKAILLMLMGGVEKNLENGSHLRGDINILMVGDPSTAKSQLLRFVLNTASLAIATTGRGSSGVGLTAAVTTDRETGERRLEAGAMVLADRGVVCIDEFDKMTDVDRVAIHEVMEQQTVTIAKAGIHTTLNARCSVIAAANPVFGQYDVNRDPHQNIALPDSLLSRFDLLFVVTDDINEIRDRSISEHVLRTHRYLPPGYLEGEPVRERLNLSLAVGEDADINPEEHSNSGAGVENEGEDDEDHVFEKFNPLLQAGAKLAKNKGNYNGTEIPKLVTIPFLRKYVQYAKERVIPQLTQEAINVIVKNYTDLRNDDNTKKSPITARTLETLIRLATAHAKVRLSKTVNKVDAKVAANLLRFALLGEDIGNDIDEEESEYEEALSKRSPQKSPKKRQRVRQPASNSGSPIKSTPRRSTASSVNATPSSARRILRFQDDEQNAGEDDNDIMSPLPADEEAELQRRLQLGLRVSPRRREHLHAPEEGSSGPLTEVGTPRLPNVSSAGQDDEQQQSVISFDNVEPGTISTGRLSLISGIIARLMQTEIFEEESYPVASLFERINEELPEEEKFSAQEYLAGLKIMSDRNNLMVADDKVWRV

B1: yeast Mcm7 (subunit of CMG) (natural protein)
chain: MSAALPSIQLPVDYNNLFNEITDFLVTFKQDTLSSDATRNENEDENLDAENIEQHLLEKGPKYMAMLQKVANRELNSVIIDLDDILQYQNEKFLQGTQADDLVSAIQQNANHFTELFCRAIDNNMPLPTKEIDYKDDVLDVILNQRRLRNERMLSDRTNEIRSENLMDTTMDPPSSMNDALREVVEDETELFPPNLTRRYFLYFKPLSQNCARRYRKKAISSKPLSVRQIKGDFLGQLITVRGIITRVSDVKPAVEVIAYTCDQCGYEVFQEVNSRTFTPLSECTSEECSQNQTKGQLFMSTRASKFSAFQECKIQELSQQVPVGHIPRSLNIHVNGTLVRSLSPGDIVDVTGIFLPAPYTGFKALKAGLLTETYLEAQFVRQHKKKFASFSLTSDVEERVMELITSGDVYNRLAKSIAPEIYGNLDVKKALLLLLVGGVDKRVGDGMKIRGDINVCLMGDPGVAKSQLLKAICKISPRGVYTTGKGSSGVGLTAAVMKDPVTDEMILEGGALVLADNGICCIDEFDKMDESDRTAIHEVMEQQTISISKAGINTTLNARTSILAAANPLYGRYNPRLSPLDNINLPAALLSRFDILFLMLDIPSRDDDEKLAEHVTYVHMHNKQPDLDFTPVEPSKMREYIAYAKTKRPVMSEAVNDYVVQAYIRLRQDSKREMDSKFSFGQATPRTLLGIIRLSQALAKLRLADMVDIDDVEEALRLVRVSKESLYQETNKSKEDESPTTKIFTIIKKMLQETGKNTLSYENIVKTVRLRGFTMLQLSNCIQEYSYLNVWHLINEGNTLKFVDDGTMDTDQEDSLVSTPKLAPQTTASANVSAQDSDIDLQDA
- binding result [1]: binds
- binding result [2]: binds
